From the supplement of paper PMC9170038

Tested on: MS2 coat protein
Assay: apparent KD of MS2 coat protein; designed switch direction (-1 OFF switch, 1 ON switch): -1; higher = weaker reporter binding
Outline: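 Apparent KD, taken as the median over clusters for each design, was obtained by curve-fitting normalised cluster fluorescence. Designed RNA switches had been transcribed on Illumina chips by stalled E. coli RNA polymerase and titrated with SNAP-549-labelled MS2 coat protein, doubling from 0.7 or 1.5 nM to 3 µM.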

[1] = input ligand: microRNA oligo, concentration not stated
[2] = Eterna round: R95, input ligand: FMN 200 uM
[3] = Eterna round: R95, input ligand: microRNA oligo, concentration not stated
[4] = Eterna round: R95, input ligand: none

Sequence: AAAUAGCUAGAGGAUAUUGGAUAGGAUUUAAUACGAGAAGGUUAGACAUGAGGAUCACCCAUGUUGUGUUGGGA [EX6 #17] (Eterna round: R97, puzzle: Exclusion 6)
- apparent KD of MS2 coat protein (input ligand: FMN 200 uM): 0.0513 µM
- apparent KD of MS2 coat protein (input ligand: none): 0.0485 µM

Sequence: AUUAUAAAUGUAGGAUAUCUGCACGUGUAGUGCAGAGAAGGACAUGAGGAUCACCCAUGUAGAUCAAUAAUAAUUAAUUUAAUU [ENG1/5-B3] (Eterna round: R96, puzzle: Exclusion NG 1)
- apparent KD of MS2 coat protein (input ligand: FMN 200 uM): 0.223 µM
- apparent KD of MS2 coat protein [1]: 0.0334 µM
- apparent KD of MS2 coat protein (input ligand: none): 0.0492 µM

Sequence: CAUGAUUGGGAAGGAUAUUGACCUAGUUAGCGACGAGAAGGUCCCUGUCACAUGAGGAUCACCCAUGUGAAUCUGGUGAAAGAG [Ex NG1 #100] (Eterna round: R96, puzzle: Exclusion NG 1)
- apparent KD of MS2 coat protein (input ligand: FMN 200 uM): 0.0298 µM
- apparent KD of MS2 coat protein [1]: 0.0204 µM
- apparent KD of MS2 coat protein (input ligand: none): 0.0242 µM

Sequence: GAAAACGCAGAGGAUAUAUCAGAUCAAAGCUGCAUAGAAGGCUGCACAUGAGGAUCACCCAUGUGGUCUUCAAU [Mat - Exclusion 6 - JL Mod - D5] (Eterna round: R97, puzzle: Exclusion 6)
- apparent KD of MS2 coat protein (input ligand: FMN 200 uM): 0.282 µM
- apparent KD of MS2 coat protein (input ligand: none): 0.0238 µM

Sequence: UUAGCGUAUGUAAGGAUAUGCUGGUCUAAUGAUCAGCAGAAGGUACAUGAGGAUCACCCAUGUGGAUUCGUUAU [Mod of JL 8 - Jieux - Brourd's mod of Exclusion 4] (Eterna round: R97, puzzle: Brourd's mod of Exclusion 4)
- apparent KD of MS2 coat protein (input ligand: FMN 200 uM): 0.327 µM
- apparent KD of MS2 coat protein (input ligand: none): 0.03 µM

Sequence: GAUUAUGCGAGCUUUAGGGACAUGAGGAUCACCCAUGUUCGUCUUAUUGGUCUAGGUGCACUAACAUACCUAAAUCU [JMF 36] (puzzle: Sensor v3, turn-off variant 1)
- apparent KD of MS2 coat protein [2]: 0.0223 µM
- apparent KD of MS2 coat protein [3]: 0.0337 µM
- apparent KD of MS2 coat protein [4]: 0.0236 µM

Sequence: UCGAUGUGAGGAUAUAUAUGCAGUAAUCCUUAUAUUUUAUAACUUGAGGAUCACCCAAGUAGAAGGCGCGACGU [JR_Ex2_Sub058] (Eterna round: R97, puzzle: Exclusion 2)
- apparent KD of MS2 coat protein (input ligand: FMN 200 uM): 0.0273 µM
- apparent KD of MS2 coat protein (input ligand: none): 0.0311 µM

Sequence: GAGUGACAUGAGGAUCACCCAUGUGAGGAUAUCGGACGGACCUAGUUAACUUCCGCCGCGAGAAGGCACAUCGG [Exclusion 1 V23] (Eterna round: R96, puzzle: Exclusion 1)
- apparent KD of MS2 coat protein (input ligand: FMN 200 uM): 0.0752 µM
- apparent KD of MS2 coat protein [1]: 0.0456 µM
- apparent KD of MS2 coat protein (input ligand: none): 0.084 µM

Sequence: AAGAAACAUGAGGAUCACCCAUGUGAGGAUAUGAUCAAGAAAAGAAAAGAAAGAAGAGUCAGAAGGCACAAAGG [salish99-ex1_r3_065] (puzzle: Exclusion 1)
- apparent KD of MS2 coat protein [2]: 0.282 µM
- apparent KD of MS2 coat protein [3]: 0.291 µM
- apparent KD of MS2 coat protein [4]: 0.418 µM

Sequence: AAGGUACGAGGAUAUACAUAGAUACAGACACAUGUGCAUGUACAUGAGGAUCACCCAUGUAGAAGGCGUAUAUA [AJ 18] (Eterna round: R96, puzzle: Exclusion 2)
- apparent KD of MS2 coat protein (input ligand: FMN 200 uM): 0.248 µM
- apparent KD of MS2 coat protein [1]: 0.0502 µM
- apparent KD of MS2 coat protein (input ligand: none): 0.0518 µM

Sequence: ACCUCACAUGAGGAUCACCCAUGUCAGGAUAUGUACCUGGCCAAGACAAAAGCCAGAAGCAGAAGGGACUGCGG [Enrionerdi] (puzzle: Exclusion 1)
- apparent KD of MS2 coat protein [2]: 0.0725 µM
- apparent KD of MS2 coat protein [3]: 0.129 µM
- apparent KD of MS2 coat protein [4]: 0.0936 µM

Sequence: GUAAUUAAUGUAGGAUAUGCAAGGCGAACCUAAGCAGAAGGACAUGAGGAUCACCCAUGUAUUGCGGUCUGCGUACAGAUCGCU [salish99_ExNG1_r4_008] (Eterna round: R96, puzzle: Exclusion NG 1)
- apparent KD of MS2 coat protein (input ligand: FMN 200 uM): 0.0457 µM
- apparent KD of MS2 coat protein [1]: 0.0185 µM
- apparent KD of MS2 coat protein (input ligand: none): 0.0199 µM

Sequence: GCGUACAGCCUAAGCAGUGACAUGAGGAUCACCCAUGUACGAACGUUUACCAAGCUUGUCUUAAUACCAUUAUAAAU [Eternabot (L1) Solution 20] (Eterna round: R97, puzzle: Sensor, turn-off variant 1)
- apparent KD of MS2 coat protein (input ligand: FMN 200 uM): 0.0237 µM
- apparent KD of MS2 coat protein (input ligand: none): 0.0289 µM

Sequence: ACAUGAGGAUCACCCAUGUCCGUCUGGUCUGUCUCGGCUGUCGAGGAUAUAGCCCGGUAUCCGCGCUAGAAGGUGGGAGUCGGC [Aenatbe mod 98] (Eterna round: R96, puzzle: Exclusion NG 3)
- apparent KD of MS2 coat protein (input ligand: FMN 200 uM): 0.0314 µM
- apparent KD of MS2 coat protein [1]: 0.0289 µM
- apparent KD of MS2 coat protein (input ligand: none): 0.0373 µM

Sequence: UUCCUCUUAACAUGAGGAUCACCCAUGUAUUAUUUGGUAAUUGAGGAUAUAUUUUUAAUGUUUAUAUAGAAGGCAAAUACAGUU [JR_ExcNG3_Sub094] (Eterna round: R96, puzzle: Exclusion NG 3)
- apparent KD of MS2 coat protein [1]: 0.0361 µM

Sequence: AACAGUCUAGAGGAUAUGUGCGAUUAAUAUCGUGCAGAAGGCUGGACAUGAGGAUCACCCAUGUAAAUACUACC [Omei Ex6 A16] (Eterna round: R97, puzzle: Exclusion 6)
- apparent KD of MS2 coat protein (input ligand: FMN 200 uM): 0.0794 µM
- apparent KD of MS2 coat protein (input ligand: none): 0.034 µM

Sequence: CCCAUGUCAGGAUAUCUAAGAGAGGAUCAGCCCUCUCCUCCGGAGAAGGGACAUGAGGAUCACCCAUGUAAAAC [Zasorequ] (puzzle: Exclusion 4)
- apparent KD of MS2 coat protein [2]: 0.0305 µM
- apparent KD of MS2 coat protein [3]: 0.145 µM
- apparent KD of MS2 coat protein [4]: 0.204 µM

Sequence: CGCUGGUGAGGAUAUGGGUGUUUUUACAUGAGGAUCACCCAUGUGGAGUAGCAUGUGGGUCCAGAAGGCGCGGGUG [-24.2, -22.5 kcal, 20% A] (Eterna round: R97, puzzle: Exclusion 5)
- apparent KD of MS2 coat protein (input ligand: FMN 200 uM): 0.682 µM
- apparent KD of MS2 coat protein (input ligand: none): 0.435 µM

Sequence: GCGUUCUGAGGAUAUACAUGAGGAUCACCCAUGUUGAGAAUUAUGUAUAAAAGAUUAUGUAGAAGGCAGAGUGC [JR_Ex3_Sub071] (Eterna round: R97, puzzle: Exclusion 3)
- apparent KD of MS2 coat protein (input ligand: FMN 200 uM): 0.14 µM
- apparent KD of MS2 coat protein (input ligand: none): 0.716 µM

Sequence: UGCCGAAGAGGAUAUACAUUGAAUUUGAUUCAUGUAAAACUACAUGAGGAUCACCCAUGUAGAAGGCUUUGGCU [Mat - Exclusion 2 - JL Mod - D61] (Eterna round: R97, puzzle: Exclusion 2)
- apparent KD of MS2 coat protein (input ligand: FMN 200 uM): 0.0342 µM
- apparent KD of MS2 coat protein (input ligand: none): 0.0153 µM

Sequence: GAGAUGUGAGGAUAUCUGGACCGUGGAAGAGCCACGGUCCGAGAGAAGGCACAUGAGGAUCACCCAUGUGAUGA [Inerusce] (puzzle: Exclusion 4)
- apparent KD of MS2 coat protein [3]: 0.0428 µM

Sequence: GUGAAACAUGAGGAUCACCCAUGUCAGGAUAUGAUACUAUGUACUUCGGUACAUAGUAUCAGAAGGGACAGUGA [Ex1-3: 3] (puzzle: Exclusion 1)
- apparent KD of MS2 coat protein [3]: 0.0744 µM

Sequence: UUUAGUCGUGACAUGGGUGACAUGAGGAUCACCCAUGUCACAAGCUUGUUGCUCGUCUUAUAAUUAACCCAUGUCAC [LRO Sensor-off var1-15 mod of Stov1-13-A1 by Brourd] (Eterna round: R97, puzzle: Sensor, turn-off variant 1)
- apparent KD of MS2 coat protein (input ligand: FMN 200 uM): 0.0193 µM
- apparent KD of MS2 coat protein (input ligand: none): 0.0196 µM

Sequence: CCGAAUAUGCAGGAUAUCGUAUCGGAGACGAUACGAGAAGGGCAAACAUGAGGAUCACCCAUGUUCCUUAACGG [Mat - Exclusion 6 - Eli Mod - D75] (puzzle: Exclusion 6)
- apparent KD of MS2 coat protein [3]: 0.0159 µM

Sequence: UACCGGCGGACCGAGGCUUUUUGCUCGUCUUGUACUACAACAUGAGGAUCACCCAUGUGGUGGUGGUCCGUUGUAGU [JL ViennaUCT Bitein mod 6] (puzzle: Sensor v3, turn-off variant 2)
- apparent KD of MS2 coat protein [2]: 0.0189 µM
- apparent KD of MS2 coat protein [3]: 0.00816 µM
- apparent KD of MS2 coat protein [4]: 0.0254 µM
